The source of these data is patent US20140348747A1 (PROMEGA, published 2014).

In assay [1] the target is T1, NLpoly 11S (12-A51T).
T1 construct: E. coli clarified lysate; also called 12S-51
T1 chain: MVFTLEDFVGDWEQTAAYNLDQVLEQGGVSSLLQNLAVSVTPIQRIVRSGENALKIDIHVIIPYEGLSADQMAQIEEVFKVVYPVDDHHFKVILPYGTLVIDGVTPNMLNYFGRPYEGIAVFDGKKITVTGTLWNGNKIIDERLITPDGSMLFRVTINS
As to the kind of experiment: luminescence complementation titration; one site-specific binding fit.

In assay [2] the target is T1, NLpoly 11S (12-A51T). As to the kind of experiment: luminescence complementation titration of synthetic NLpep on NLpoly E. coli lysate; one site-specific binding fit.

Ac-VSGWRLFKKISN-NH2 (synthetic peptide) [NLpep80]: the “fold improved affinity over NLpolyWT:NLpepWT” value with NLpoly 11S (12-A51T) [1] was 10000 fold. Besides, the Kd in the assay with NLpoly 11S (12-A51T) [2] is below 1 nM.

As for Ac-VSGWRLFKKIS-NH2 (synthetic peptide) [NLpep86], the “fold improved affinity over NLpolyWT:NLpepWT” value with NLpoly 11S (12-A51T) [1] stood at 10000 fold. In addition, the Kd with NLpoly 11S (12-A51T) [2] is below 1 nM.

In general, Kd refers to the equilibrium constant for the complex coming apart. Low readings indicate tighter binding, high ones weaker binding.
